In US20210355206A1 (Novartis, published 2021):
Changes are numbered by the printed parent chain. Values belong to the binder of their own block, whether it stands above or below them.

Tests used:
[1] = molecular target: T1, Rabbit Epo (rabbit, UniProt Q9GKA2 29-195, limits assumed); assay: solution equilibrium titration (SET), MSD ECL read-out, Fab with Epo titration
T1 sequence: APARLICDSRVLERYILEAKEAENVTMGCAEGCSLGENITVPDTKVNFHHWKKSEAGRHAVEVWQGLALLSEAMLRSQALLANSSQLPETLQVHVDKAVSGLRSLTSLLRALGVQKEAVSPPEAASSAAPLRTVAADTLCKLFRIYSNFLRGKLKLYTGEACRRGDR
Description: (§1) In SET, a constant amount of antibody is incubated with different concentrations of antigen until equilibrium is reached. The concentration of free antibody in the equilibrated solution is determined by applying the solution on an antigen coated MSD™ plate (Meso Scale Discovery™) followed by incubation with an ECL-labeled secondary antibody and measurement of signal intensity. […] If a sufficient number of antigen concentrations in a matching range are available, the titration curve allows for a reasonable determination of the affinity, using the appropriate fit model.
(§2) Streptavidin-coated standard MSD plates (Meso-Scale Discovery, 384-well: MSD cat #L11 SA) were blocked with 25 μl incubation buffer at RT for 1 hr. […] Plates were washed 3× in TBST buffer. […] Plates were washed 3× in TBST buffer. 25 μl detection antibody was added (Anti-Human (Goat) Sulfo-TAG, 1:1000 in incubation buffer, MSD cat #R32AJ-1), and incubated at RT for 60 min. Plates were washed 3× in wash buffer, and 50 μl of 1× MSD Read buffer T was added (with surfactant, MSD cat #R92TC-1). Plates were read on a MSD Spector Imager 6000.

[2] = molecular target: T2, Mouse Epo (mouse, UniProt P07321 27-192); assay: as above
T2 sequence: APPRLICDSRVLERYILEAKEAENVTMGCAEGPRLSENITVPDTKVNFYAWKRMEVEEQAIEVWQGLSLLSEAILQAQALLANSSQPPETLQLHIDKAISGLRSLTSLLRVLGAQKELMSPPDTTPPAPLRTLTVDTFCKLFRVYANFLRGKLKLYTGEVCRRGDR
Description: as §1, §2

[3] = molecular target: T3, Rat Epo (rat, UniProt P29676 27-192); assay: as above
T3 sequence: T2 sequence with E55K, I61V, L81Q, T90S, T124A, P126Q, P127A, V135A, A146S, V160A
Description: as §1, §2

[4] = molecular target: T1, Rabbit Epo; assay: SPR (Biacore T200), Fab captured by anti-human Fab, Epo as analyte, 25 C
Description: (§3) Three flow cells were utilized for the method run. […] Both capture and binding steps were carried out on flow cells 2-4.
(§4) The resulting signals were adjusted by double referencing, thus subtracting the refraction index values from the reference flow cell and the binding step with no analyte. Data was collected at 10 Hz and analyzed using the Biacore® T100 Evaluation Software Version 1.1 (GE Healthcare). This program uses a global fitting analysis method for the determination of rate and affinity constants for each interaction.

[5] = molecular target: T2, Mouse Epo; assay: as above
Description: as §3, §4

[6] = molecular target: T3, Rat Epo; assay: as above
Description: as §3, §4

[7] = molecular target: T3, Rat Epo; assay: SET; rat Epo
Description: as §1, §2

[8] = molecular target: T2, Mouse Epo; assay: SET; mouse Epo
Description: as §1, §2

[9] = molecular target: T2, Mouse Epo; assay: solution equilibrium titration (SET), MSD ECL read-out, Fab with Epo titration; single datapoint
Description: as §1, §2

[10] = molecular target: T3, Rat Epo; assay: as above
Description: as §1, §2

[11] = molecular target: T1, Rabbit Epo; assay: SPR (Biacore T200), Fab captured by anti-human Fab, Epo as analyte, 25 C; single datapoint
Description: as §3, §4

[12] = molecular target: T2, Mouse Epo; assay: as above
Description: as §3, §4

[13] = molecular target: T3, Rat Epo; assay: as above
Description: as §3, §4

[14] = molecular target: T2, Mouse Epo; assay: SET
Description: as §1, §2

[15] = molecular target: T3, Rat Epo; assay: SET
Description: as §1, §2

- Kd [1]: 39.9 pM
- Kd [2]: 2.5 pM
- Kd [3]: 1.2 pM
- Kd [4]: 674 pM
- Kd [5]: 1 pM
- Kd [6]: 38 pM
B1: NVS3 (Fab, V domains shown)
VH: QVQLQQSGPGLVKPSQTLSLTCAISGDSVSSNTAAWNWIRQSPSRGLEWLGVIYYRSKWYNDYAVSVKSRITINPDTSKNQFSLQLNSVTPEDTAVYYCARSVPGGDPGLEHAFAYWGRGTLVTVSS
VL: SYVLTQPPSVSVAPGKTARITCSGDNLGTYYVEWYQQKPGQAPVLVIYDDSDRPSGIPERFSGSNSGNTATLTISRVEAGDEADYYCASFASWSDSVFGGGTKLTVLG
notes: Human FabCys format; also called Fab NVS3; derived from initial antibody 11380

- Kd [7]: < 20 pM
- Kd [1]: 3860 pM
- Kd [2]: 37 pM
- Kd [3]: 12.7 pM
- Kd [4]: 5160 pM
- Kd [5]: 44.9 pM
- Kd [6]: 56.6 pM
- Kd [8]: < 50 pM
B2: NVS2 (Fab, V domains shown)
VH: EVQLVQSGAEVKKPGESLKISCKGSGYSFTSYWIGWVRQMPGKGLEWMGWIDPYRSEIRYSPSFQGQVTISADKSISTAYLQWSSLKASDTAMYYCARVSSEPFDSWGQGTLVTVSS
VL: SYVLTQPPSVSVAPGKTARITCSGDKLGDHYAYWYQQKPGQAPVLVIYDDSKRPSGIPERFSGSNSGNTATLTISRVEAGDEADYYCATWTFEGDYVFGGGTKLTVLG
notes: Human FabCys format; also called Fab NVS2; anti-EPO Fab

- Kd [9]: 16.1 pM
- Kd [10]: 5.4 pM
- Kd [11]: 661 pM
- Kd [12]: 22 pM
- Kd [13]: 41 pM
B3: NVS1 (Fab, V domains shown)
VH: QVQLVQSGAEVKKPGSSVKVSCKASGGTFRSYAISWVRQAPGQGLEWMGGIDPISGFADYAQKFQGRVTITADESTSTAYMELSSLRSEDTAVYYCARELYYPGTWMAVMAYWGRGTLVTVSS
VL: SYVLTQPPSVSVAPGKTARITCSGDNIPEYYVHWYQQKPGQAPVLVIYRDNERPSGIPERFSGSNSGNTATLTISRVEAGDEADYYCQVFDESSWHWVFGGGTKLTVLG
notes: Human FabCys format (VH-CH1 ending EPKSC, lambda light chain); also called Fab NVS1; derived from initial antibody 11319

- Kd [14]: < 10 pM
- Kd [15]: < 10 pM
- Kd [1]: 28700 pM
- Kd [2]: 7.8 pM
- Kd [3]: 12.7 pM
- Kd [5]: 30.5 pM
- Kd [6]: 34.4 pM
B4: NVS4 (Fab, V domains shown)
VH: QVQLVQSGAEVKKPGASVKVSCKASGYTFTSYYMSWVRQAPGQGLEWMGWINPLKGNTNYAQKFQGRVTMTRDTSISTAYMELSRLRSEDTAVYYCAREGMYFDIWGQGTLVTVSS
VL: SYELTQPLSVSVALGQTARITCSGDSIGDKYVYWYQQKPGQAPVLVIYDTNKRPSGIPERFSGSNSGNTATLTISRAQAGDEADYYCQSWDLDFNTYVFGGGTKLTVLG
notes: Human FabCys format; also called Fab NVS4; derived from initial antibody 11317
